Values quoted from earlier work as cited in US20180022822A1, “NOVEL ANTI-FIBROBLAST ACTIVATION PROTEIN (FAP) BINDING AGENTS AND USES THEREOF” (Mabimmune Diagnostics AG, priority 2016, published 2018).

Legend:
[1] = pH 7.8
[2] = in vivo

Compound: CC(C)[C@H](N)C(=O)N1CCC[C@H]1B(O)O [Talabostat, Val-boroPro]
- stability of inhibitory activity [1]: rapidly loses inhibitory activity

Compound: Sibrotuzumab: humanized version of the F19 antibody that specifically binds to human FAP
- patients with change in pharmacokinetics and reduced tumor uptake ([2]; human): 4 of 26
- patients who developed human-anti-human antibodies (HAHA) [2]: 8 of 26
